The target in assay [1] is T1, human CD34 protein (Fc tag) (human, UniProt P28906 32-290).
T1 construct: Bought reagent (Sino Biological); also called recombinant human CD34 protein; immobilized human CD34 protein; not shown: Fc tag
T1 sequence (looked up): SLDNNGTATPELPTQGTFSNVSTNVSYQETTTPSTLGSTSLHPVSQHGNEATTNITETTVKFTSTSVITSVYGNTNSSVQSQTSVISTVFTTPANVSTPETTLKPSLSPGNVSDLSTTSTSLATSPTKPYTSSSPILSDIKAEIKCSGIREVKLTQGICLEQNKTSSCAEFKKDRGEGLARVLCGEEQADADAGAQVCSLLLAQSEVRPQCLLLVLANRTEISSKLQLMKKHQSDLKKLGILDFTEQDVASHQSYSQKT
As to the kind of experiment: SPR (Biacore X), CD34-Fc immobilized on chip, antibody injected, bivalent fit. How it is done: (§1) FIGS. 8A and 8B show the surface plasma resonance (SPR) analysis of interaction between human CD34 protein and chimeric QBEND/10 (A) or humanized QBEND/10 (B). Each antibody was injected and flowed over a surface chip with immobilized human CD34 protein at a flow rate of 30 μl/min. The resulting SPR sensorgrams were analyzed to determine the association/dissociation rate constants using the analysis program (BIAevaluation 3.2) provided by the manufacturer.
(§2) The binding kinetics of QBEND/10 antibodies to the human CD34 protein (Fc tag) (Sino Biological Incorporation, Beijing, China) were measured by performing the Biacore system (Biacore X, GE Healthcare, South Logan, Utah, USA) in the electrophoresis running buffer HBS-EP (10 mM HEPES, pH 7.4; 150 mM NaCl; 3 mM EDTA; 0.005% surfactant P20). In Brief, human CD34 protein was immobilized onto a CMS sensor chip via amine coupling to a level of 1200 response units (RU), and purified antibodies with different concentrations were injected at a flow rate of 30 μl/min. The surface was regenerated by injection of 15 μl of 10 mM glycine-HCl, pH 2.5. Then, the sensorgrams obtained at each concentration were evaluated by the program BIA Evaluation 3.2 (GE Healthcare, South Logan, Utah, USA). The binding data were fitted with a 2:1 (bivalent) binding model to calculate the affinity constant KD, which was defined as the ratio of dissociation rate (koff)/association rate (kₒₙ).

Assay [2] deals with T1, human CD34 protein (Fc tag). As to the kind of experiment: SPR (Biacore X), CD34-Fc immobilized on chip. How it is done: as §1
as §2, with “The binding data were fitted with a 2:1 (bivalent) binding model to calculate the affinity constant KD, which was defined as the ratio of dissociation rate (koff)/association rate (kₒₙ).” left out
(In general: In SPR one partner is held on a chip, and binding of the other changes the refractive index at the surface.)

B1: chimeric QBEND/10 (antibody, V domains shown)
VH: QVQLEQSGPELVKPGASVKMSCKASGYTFTSYVIHWVKQKPGQGLEWLGYTNPYNDVTKYNEKFKFKATLTSDKQSTTAYMEFSSLTSEDSAVYYCARYGGLWLYAMDYWGQGTSVTVSS
VL: QLVLTQSSSASFSLGASAKLTCTLSSQHRTFTIEWYQQQPLKPPKYVMELRKDGSHSTGDGIPDRFSGSSSGADRYLSISNIQPEDEAIYICGVGNTIKEQFVYVFGGGTKVTVL
notes: Expressed in NS0 cells; also called chimeric QBEND/10 antibody; parental antibody
B1: in assay [1], the Kd was found to be 14.7 nM; the koff – broadly, a measure of how fast the partners let go of each other – is 0.000262 s⁻¹; the kon (commonly a measure of how fast the partners come together) was 17800 M⁻¹ s⁻¹.

B2: humanized QBEND/10 (antibody, V domains shown)
VH: QVQLVQSGAELVKPGASVKMSCKASGYTFTSYVIHWVKQKPGQGLEWLGYTNPYNDVTKYNEKFKFKATLTSDTSSTTAYMEFSSLTSEDSAVYYCARYGGLWLYAMDYWGQGTSVTVSS
VL: QLVLTQSPSASFSLGASAKLTCTLSSQHRTFTIEWYQQQPEKPPKYVMELRKDGSHSKGDGIPDRFSGSSSGADRYLSISSIQPEDEAIYICGVGNTIKEQFVYVFGTGTKVTVL
notes: Expressed in NS0 cells; also called resurfaced QBEND/10; humanized QBEND/10 antibody
As for B2, in assay [1], the Kd was found to be 7.34 nM, the koff was 0.000268 s⁻¹ and the kon is 36600 M⁻¹ s⁻¹. Also, the “fold increase of kon against chimeric QBEND/10” value in assay [2] came to 2 fold.

These data come from US20170320966A1 (INDUSTRIAL TECHNOLOGY RESEARCH INSTITUTE, published 2017).
